Patent US20230002480A1

Assays:
Experiment in all cases: cell-based or functional assay
[1] = biological target: HIV-1 Env of pseudovirus 211-9 (HIV-1)
[2] = biological target: HIV-1 Env of pseudovirus 231965.c01 (HIV-1)
[3] = biological target: HIV-1 Env of pseudovirus 246F C1G (HIV-1)
[4] = biological target: HIV-1 Env of pseudovirus 263-8 (HIV-1)
[5] = biological target: HIV-1 Env of pseudovirus 3103.v3.c10 (HIV-1)
[6] = biological target: HIV-1 Env of pseudovirus 3301.v1.c24 (HIV-1)
[7] = biological target: HIV-1 Env of pseudovirus 620345.c01 (HIV-1)
[8] = biological target: HIV-1 Env of pseudovirus 6480.v4.c25 (HIV-1)
[9] = biological target: HIV-1 Env of pseudovirus 6545.v4.c1 (HIV-1)
[10] = biological target: HIV-1 Env of pseudovirus 6952.v1.c20 (HIV-1)
[11] = biological target: HIV-1 Env of pseudovirus 89-F1_2_25 (HIV-1)
[12] = biological target: HIV-1 Env of pseudovirus 9004SS_A3_4 (HIV-1)
[13] = biological target: HIV-1 Env of pseudovirus AC10.0.29 (HIV-1)
[14] = biological target: HIV-1 Env of pseudovirus BJOX010000.06.2 (HIV-1)
[15] = biological target: HIV-1 Env of pseudovirus BJOX025000.01.1 (HIV-1)
[16] = biological target: HIV-1 Env of pseudovirus C1080.c03 (HIV-1)
[17] = biological target: HIV-1 Env of pseudovirus C3347.c11 (HIV-1)
[18] = biological target: HIV-1 Env of pseudovirus CNE19 (HIV-1)
[19] = biological target: HIV-1 Env of pseudovirus CNE21 (HIV-1)
[20] = biological target: HIV-1 Env of pseudovirus CNE52 (HIV-1)
[21] = biological target: HIV-1 Env of pseudovirus Ce1086_B2 (HIV-1)
[22] = biological target: HIV-1 Env of pseudovirus HIV-0013095-2.11 (HIV-1)
[23] = biological target: HIV-1 Env of pseudovirus HIV-16055-2.3 (HIV-1)
[24] = biological target: HIV-1 Env of pseudovirus P0402_c2_11 (HIV-1)
[25] = biological target: HIV-1 Env of pseudovirus PVO.4 (HIV-1)
[26] = biological target: HIV-1 Env of pseudovirus Q769.d22 (HIV-1)
[27] = biological target: HIV-1 Env of pseudovirus SC05_8C11_2344 (HIV-1)
[28] = biological target: HIV-1 Env of pseudovirus SC422661.8 (HIV-1)
[29] = biological target: HIV-1 Env of pseudovirus T255-34 (HIV-1)
[30] = biological target: HIV-1 Env of pseudovirus T257-31 (HIV-1)
[31] = biological target: HIV-1 Env of pseudovirus THRO4156.18 (HIV-1)
[32] = biological target: HIV-1 Env of pseudovirus TRJO4551.58 (HIV-1)
[33] = biological target: HIV-1 Env of pseudovirus X1632_S2_B10 (HIV-1)
[34] = biological target: HIV-1 Env of pseudovirus ZM135M.PL10a (HIV-1)
[35] = biological target: HIV-1 Env of pseudovirus ZM197M.PB7 (HIV-1)
[36] = biological target: HIV-1 Env of pseudovirus ZM247v1(Rev-) (HIV-1)

## PGT121 (antibody)
[1]
  IC50: 0.852 µg/mL
  IC80: 4.2 µg/mL
[2]
  IC50: > 50 µg/mL
  IC80: > 50 µg/mL
[3]
  IC50: 0.041 µg/mL
  IC80: 0.14 µg/mL
[4]
  IC50: 0.648 µg/mL
  IC80: 3.96 µg/mL
[5]
  IC50: 0.009 µg/mL
  IC80: 0.028 µg/mL
[6]
  IC50: 0.008 µg/mL
  IC80: 0.019 µg/mL
[7]
  IC50: > 50 µg/mL
  IC80: > 50 µg/mL
[8]
  IC50: < 0.001 µg/mL
  IC80: 0.004 µg/mL
[9]
  IC50: > 50 µg/mL
  IC80: > 50 µg/mL
[10]
  IC50: 0.056 µg/mL
  IC80: 0.42 µg/mL
[11]
  IC50: > 50 µg/mL
  IC80: > 50 µg/mL
[12]
  IC50: < 0.001 µg/mL
  IC80: 0.003 µg/mL
[13]
  IC50: 0.024 µg/mL
  IC80: 0.073 µg/mL
[14]
  IC50: > 50 µg/mL
  IC80: > 50 µg/mL
[15]
  IC50: > 50 µg/mL
  IC80: > 50 µg/mL
[16]
  IC50: > 50 µg/mL
  IC80: > 50 µg/mL
[17]
  IC50: > 50 µg/mL
  IC80: > 50 µg/mL
[18]
  IC50: 0.008 µg/mL
  IC80: 0.105 µg/mL
[19]
  IC50: 0.007 µg/mL
  IC80: 0.035 µg/mL
[20]
  IC50: 2.04 µg/mL
  IC80: 18.9 µg/mL
[21]
  IC50: < 0.001 µg/mL
  IC80: < 0.001 µg/mL
[22]
  IC50: > 50 µg/mL
  IC80: > 50 µg/mL
[23]
  IC50: 0.153 µg/mL
  IC80: 4.8 µg/mL
[24]
  IC50: 0.005 µg/mL
[25]
  IC50: 0.098 µg/mL
  IC80: 0.343 µg/mL
[26]
  IC50: > 50 µg/mL
  IC80: > 50 µg/mL
[27]
  IC50: 0.019 µg/mL
  IC80: 0.071 µg/mL
[28]
  IC50: 0.038 µg/mL
  IC80: 0.177 µg/mL
[29]
  IC50: 18.7 µg/mL
  IC80: > 50 µg/mL
[30]
  IC50: > 50 µg/mL
  IC80: > 50 µg/mL
[31]
  IC50: > 50 µg/mL
  IC80: > 50 µg/mL
[32]
  IC50: 1.31 µg/mL
  IC80: 37.9 µg/mL
[33]
  IC50: > 50 µg/mL
  IC80: > 50 µg/mL
[34]
  IC50: 0.716 µg/mL
  IC80: 5.25 µg/mL
[35]
  IC50: > 50 µg/mL
  IC80: > 50 µg/mL
[36]
  IC50: 0.028 µg/mL
  IC80: 0.082 µg/mL

## PGT128 (antibody)
[1]
  IC50, titer in TZM.bl cells: 0.062 µg/mL
  IC80, titer in TZM.bl cells: 0.215 µg/mL
[2]
  IC50, titer in TZM.bl cells: > 50 µg/mL
  IC80, titer in TZM.bl cells: > 50 µg/mL
[3]
  IC50: 0.005 µg/mL
  IC80: 0.014 µg/mL
[4]
  IC50: 0.342 µg/mL
  IC80: 3.3 µg/mL
[5]
  IC50, titer in TZM.bl cells: 0.014 µg/mL
  IC80, titer in TZM.bl cells: 0.033 µg/mL
[6]
  IC50, titer in TZM.bl cells: 0.067 µg/mL
  IC80, titer in TZM.bl cells: 0.499 µg/mL
[7]
  IC50, titer in TZM.bl cells: > 50 µg/mL
  IC80, titer in TZM.bl cells: > 50 µg/mL
[8]
  IC50, titer in TZM.bl cells: 0.003 µg/mL
  IC80, titer in TZM.bl cells: 0.019 µg/mL
[9]
  IC50, titer in TZM.bl cells: > 50 µg/mL
  IC80, titer in TZM.bl cells: > 50 µg/mL
[10]
  IC50, titer in TZM.bl cells: > 50 µg/mL
  IC80, titer in TZM.bl cells: > 50 µg/mL
[11]
  IC50, titer in TZM.bl cells: > 50 µg/mL
  IC80, titer in TZM.bl cells: > 50 µg/mL
[12]
  IC50: 0.002 µg/mL
  IC80: 0.01 µg/mL
[13]
  IC50: 0.008 µg/mL
  IC80: 0.018 µg/mL
[14]
  IC50, titer in TZM.bl cells: 4.82 µg/mL
  IC80, titer in TZM.bl cells: > 50 µg/mL
[15]
  IC50, titer in TZM.bl cells: > 50 µg/mL
  IC80, titer in TZM.bl cells: > 50 µg/mL
[16]
  IC50, titer in TZM.bl cells: 0.283 µg/mL
  IC80, titer in TZM.bl cells: 2.06 µg/mL
[17]
  IC50, titer in TZM.bl cells: 0.001 µg/mL
  IC80, titer in TZM.bl cells: 0.007 µg/mL
[18]
  IC50: > 50 µg/mL
  IC80: > 50 µg/mL
[19]
  IC50: 0.01 µg/mL
  IC80: 0.026 µg/mL
[20]
  IC50: > 50 µg/mL
  IC80: > 50 µg/mL
[21]
  IC50: > 50 µg/mL
  IC80: > 50 µg/mL
[22]
  IC50: > 50 µg/mL
  IC80: > 50 µg/mL
[23]
  IC50: > 50 µg/mL
  IC80: > 50 µg/mL
[24]
  IC50, titer in TZM.bl cells: 0.007 µg/mL
  IC80, titer in TZM.bl cells: 0.02 µg/mL
[25]
  IC50: 0.011 µg/mL
  IC80: 0.028 µg/mL
[26]
  IC50: > 50 µg/mL
  IC80: > 50 µg/mL
[27]
  IC50: 0.017 µg/mL
  IC80: 0.041 µg/mL
[28]
  IC50: 1.08 µg/mL
  IC80: 18.4 µg/mL
[29]
  IC50, titer in TZM.bl cells: > 50 µg/mL
  IC80, titer in TZM.bl cells: > 50 µg/mL
[30]
  IC50: > 50 µg/mL
  IC80: > 50 µg/mL
[31]
  IC50: > 50 µg/mL
  IC80: > 50 µg/mL
[32]
  IC50: 0.018 µg/mL
  IC80: 0.041 µg/mL
[33]
  IC50, titer in TZM.bl cells: > 50 µg/mL
  IC80, titer in TZM.bl cells: > 50 µg/mL
[34]
  IC50: > 50 µg/mL
  IC80: > 50 µg/mL
[35]
  IC50: > 50 µg/mL
  IC80: > 50 µg/mL
[36]
  IC50: 0.021 µg/mL
  IC80: 0.081 µg/mL
